{"source": "the supplement of paper PMC10598134", "assay": "collision cross section of modified peptide (TIMS, N2, iRT-aligned); higher = larger / more extended gas-phase ion", "summary_of_the_method": "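On a timsTOF Pro/HT (dda-PASEF, nitrogen, ~2.4 mbar), synthetic peptide pools were analysed after a 120-min nanoflow C18 separation at 60 °C and identified in MaxQuant. Three reference ions served for 1/K0 calibration, with run-wise alignment to the median iRT peptide deviation. Collision cross section comes from the Mason-Schamp equation, using the most abundant feature per charge state averaged over 1–3 technical replicates.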", "key": {"[1]": {"details": "charge state: 3, modification: Methyl (R)"}, "[2]": {"details": "charge state: 2, modification: Crotonyl"}, "[3]": {"details": "charge state: 2, modification: hydroxyisobutyryl"}, "[4]": {"details": "charge state: 2, modification: Butyryl"}, "[5]": {"details": "charge state: 3, modification: Butyryl"}, "[6]": {"details": "charge state: 3, modification: hydroxyisobutyryl"}, "[7]": {"details": "charge state: 2, modification: Malonyl"}, "[8]": {"details": "charge state: 3, modification: Formyl"}, "[9]": {"details": "charge state: 3, modification: Dimethyl (K)"}, "[10]": {"details": "charge state: 2, modification: Acetyl (K)"}, "[11]": {"details": "charge state: 3, modification: Acetyl (K)"}, "[12]": {"details": "charge state: 2, modification: Nitro (Y)"}, "[13]": {"details": "charge state: 3, modification: Nitro (Y)"}, "[14]": {"details": "charge state: 2, modification: Glutarylation"}, "[15]": {"details": "charge state: 3, modification: Glutarylation"}, "[16]": {"details": "charge state: 2, modification: Phospho (Y)"}, "[17]": {"details": "charge state: 3, modification: GlyGly (K)"}}, "note": "± gives the standard deviation.", "data": [{"substance": "RFGGPVHHQAQR [_R(Methyl (R))FGGPVHHQAQR_]", "values": [{"measurement": "collision cross section", "setting": "[1]", "value": "496.52 ± 2.2", "unit": "Å²"}]}, {"substance": "LTSLNVKYNNDK [_LTSLNVK(Crotonyl)YNNDK_]", "values": [{"measurement": "collision cross section", "setting": "[2]", "value": "414.39 ± 1.1", "unit": "Å²"}]}, {"substance": "VDIDVPDVNIEGPDAKLK [_VDIDVPDVNIEGPDAK(hydroxyisobutyryl)LK_]", "values": [{"measurement": "collision cross section", "setting": "[3]", "value": 489.94, "unit": "Å²"}]}, {"substance": "LLIVSTTPYSEKDTK [_LLIVSTTPYSEK(Crotonyl)DTK_]", "values": [{"measurement": "collision cross section", "setting": "[2]", "value": "458.47 ± 1.4", "unit": "Å²"}, {"measurement": "collision cross section", "setting": "charge state: 3, modification: Crotonyl", "value": "486.79 ± 2.7", "unit": "Å²"}]}, {"substance": "GTISAPGKVVTAAAQAK [_GTISAPGK(Butyryl)VVTAAAQAK_]", "values": [{"measurement": "collision cross section", "setting": "[4]", "value": "447.93 ± 0.25", "unit": "Å²"}, {"measurement": "collision cross section", "setting": "[5]", "value": "519.35 ± 2.9", "unit": "Å²"}]}, {"substance": "SSGPGGQNVNKVNSK [_SSGPGGQNVNK(hydroxyisobutyryl)VNSK_]", "values": [{"measurement": "collision cross section", "setting": "[3]", "value": "407.53 ± 1.1", "unit": "Å²"}, {"measurement": "collision cross section", "setting": "[6]", "value": "447.88 ± 1.1", "unit": "Å²"}]}, {"substance": "GSLGAQKLANTCFNEIEK [_GSLGAQK(Malonyl)LANTCFNEIEK_]", "values": [{"measurement": "collision cross section", "setting": "[7]", "value": 466.18, "unit": "Å²"}, {"measurement": "collision cross section", "setting": "charge state: 3, modification: Malonyl", "value": 511.38, "unit": "Å²"}]}, {"substance": "HELQANCYEEVKDR [_HELQANCYEEVK(Formyl)DR_]", "values": [{"measurement": "collision cross section", "setting": "[8]", "value": 490.46, "unit": "Å²"}]}, {"substance": "SDDESSQKDIK [_SDDESSQK(Crotonyl)DIK_]", "values": [{"measurement": "collision cross section", "setting": "[2]", "value": "379.43 ± 0.8", "unit": "Å²"}]}, {"substance": "PSVSTKLISK [_PSVSTK(Butyryl)LISK_]", "values": [{"measurement": "collision cross section", "setting": "[4]", "value": "357.77 ± 1.8", "unit": "Å²"}]}, {"substance": "TFGKAAGPSLSHTSGGTQSK [_TFGK(Dimethyl (K))AAGPSLSHTSGGTQSK_]", "values": [{"measurement": "collision cross section", "setting": "[9]", "value": "547.87 ± 1.3", "unit": "Å²"}]}, {"substance": "VTLEVGKVIQQGR [_VTLEVGK(Formyl)VIQQGR_]", "values": [{"measurement": "collision cross section", "setting": "charge state: 2, modification: Formyl", "value": "402.06 ± 2.7", "unit": "Å²"}, {"measurement": "collision cross section", "setting": "[8]", "value": "475.94 ± 2.1", "unit": "Å²"}]}, {"substance": "FGTINIVHPKLGSYTK [_FGTINIVHPK(Acetyl (K))LGSYTK_]", "values": [{"measurement": "collision cross section", "setting": "[10]", "value": "467.42 ± 3.8", "unit": "Å²"}, {"measurement": "collision cross section", "setting": "[11]", "value": "551.28 ± 1.6", "unit": "Å²"}]}, {"substance": "YVHADAPTNK [_Y(Nitro (Y))VHADAPTNK_]", "values": [{"measurement": "collision cross section", "setting": "[12]", "value": "352.73 ± 0.72", "unit": "Å²"}, {"measurement": "collision cross section", "setting": "[13]", "value": "417.54 ± 1.2", "unit": "Å²"}]}, {"substance": "AAINQKLIETGER [_AAINQK(Gluratylation)LIETGER_]", "values": [{"measurement": "collision cross section", "setting": "[14]", "value": "412.05 ± 1.1", "unit": "Å²"}, {"measurement": "collision cross section", "setting": "[15]", "value": "483.6 ± 2.4", "unit": "Å²"}]}, {"substance": "SPASDTYIVFGEAK [_SPASDTY(Phospho (Y))IVFGEAK_]", "values": [{"measurement": "collision cross section", "setting": "[16]", "value": 410.05, "unit": "Å²"}]}, {"substance": "ITASLCDLKSR [_ITASLCDLK(Biotin)SR_]", "values": [{"measurement": "collision cross section", "setting": "charge state: 2, modification: Biotin", "value": 401.02, "unit": "Å²"}]}, {"substance": "AGPNASIISLKSDK [_AGPNASIISLK(Butyryl)SDK_]", "values": [{"measurement": "collision cross section", "setting": "[4]", "value": "413.93 ± 1.1", "unit": "Å²"}]}, {"substance": "SRGGGGNFGPGPGSNFR [_SR(Methyl (R))GGGGNFGPGPGSNFR_]", "values": [{"measurement": "collision cross section", "setting": "[1]", "value": "461.66 ± 1.4", "unit": "Å²"}]}, {"substance": "GFALVGVGSEASSKK [_GFALVGVGSEASSK(Acetyl (K))K_]", "values": [{"measurement": "collision cross section", "setting": "[10]", "value": "429.07 ± 17", "unit": "Å²"}, {"measurement": "collision cross section", "setting": "[11]", "value": "499.93 ± 0.98", "unit": "Å²"}]}, {"substance": "GETASKLQSEISR [_GETASK(Gluratylation)LQSEISR_]", "values": [{"measurement": "collision cross section", "setting": "[14]", "value": "403.5 ± 0.6", "unit": "Å²"}, {"measurement": "collision cross section", "setting": "[15]", "value": 470.57, "unit": "Å²"}]}, {"substance": "LQAAYAGDKADDIQK [_LQAAYAGDK(Butyryl)ADDIQK_]", "values": [{"measurement": "collision cross section", "setting": "[4]", "value": "436.77 ± 0.53", "unit": "Å²"}, {"measurement": "collision cross section", "setting": "[5]", "value": "489.7 ± 2.9", "unit": "Å²"}]}, {"substance": "LTSLNVKYNNDK [_LTSLNVK(Acetyl (K))YNNDK_]", "values": [{"measurement": "collision cross section", "setting": "[10]", "value": "407.77 ± 1", "unit": "Å²"}]}, {"substance": "SITHSTVGSKGEK [_SITHSTVGSK(Acetyl (K))GEK_]", "values": [{"measurement": "collision cross section", "setting": "[10]", "value": "391.66 ± 1.8", "unit": "Å²"}, {"measurement": "collision cross section", "setting": "[11]", "value": "440.5 ± 4", "unit": "Å²"}]}, {"substance": "FGTINIVHPKLGSYTK [_FGTINIVHPK(GlyGly (K))LGSYTK_]", "values": [{"measurement": "collision cross section", "setting": "[17]", "value": "511.55 ± 1.9", "unit": "Å²"}]}, {"substance": "SSFAYKDQNENR [_SSFAYK(Succinyl)DQNENR_]", "values": [{"measurement": "collision cross section", "setting": "charge state: 2, modification: Succinyl", "value": "400.73 ± 0.25", "unit": "Å²"}, {"measurement": "collision cross section", "setting": "charge state: 3, modification: Succinyl", "value": 453.96, "unit": "Å²"}]}, {"substance": "VGIDTPDIDIHGPEGKLK [_VGIDTPDIDIHGPEGK(GlyGly (K))LK_]", "values": [{"measurement": "collision cross section", "setting": "charge state: 2, modification: GlyGly (K)", "value": 467.27, "unit": "Å²"}, {"measurement": "collision cross section", "setting": "[17]", "value": "525.5 ± 1.3", "unit": "Å²"}]}, {"substance": "FEGAIYR [_FEGAIY(Nitro (Y))R_]", "values": [{"measurement": "collision cross section", "setting": "[12]", "value": "321.92 ± 0.71", "unit": "Å²"}]}, {"substance": "IVSGKDYNVTANSK [_IVSGK(hydroxyisobutyryl)DYNVTANSK_]", "values": [{"measurement": "collision cross section", "setting": "[3]", "value": "417.55 ± 0.55", "unit": "Å²"}, {"measurement": "collision cross section", "setting": "[6]", "value": "466.6 ± 0.46", "unit": "Å²"}]}, {"substance": "DLYEPSHGAK [_DLY(Nitro (Y))EPSHGAK_]", "values": [{"measurement": "collision cross section", "setting": "[12]", "value": "364.04 ± 0.94", "unit": "Å²"}, {"measurement": "collision cross section", "setting": "[13]", "value": "435.87 ± 1.2", "unit": "Å²"}]}, {"substance": "DDIIENAPTTHTEEYSGEEK [_DDIIENAPTTHTEEY(Nitro (Y))SGEEK_]", "values": [{"measurement": "collision cross section", "setting": "[13]", "value": "553.72 ± 2.2", "unit": "Å²"}]}, {"substance": "VQGGALEDSQLVAGVAFKK [_VQGGALEDSQLVAGVAFK(Dimethyl (K))K_]", "values": [{"measurement": "collision cross section", "setting": "[9]", "value": "554.94 ± 0.79", "unit": "Å²"}]}, {"substance": "GSLEKGSPEDK [_GSLEK(Malonyl)GSPEDK_]", "values": [{"measurement": "collision cross section", "setting": "[7]", "value": "365.48 ± 0.011", "unit": "Å²"}]}, {"substance": "DLYEPSHGAK [_DLY(Phospho (Y))EPSHGAK_]", "values": [{"measurement": "collision cross section", "setting": "[16]", "value": "375.68 ± 0.063", "unit": "Å²"}]}, {"substance": "VNALKNLQVK [_VNALK(Acetyl (K))NLQVK_]", "values": [{"measurement": "collision cross section", "setting": "[10]", "value": "369.79 ± 0.48", "unit": "Å²"}]}]}
